Measurements as given in patent US20090232762A1, “COMPOSITIONS FOR DELIVERY OF THERAPEUTIC AGENTS” (priority 2008, published 2009).

Key:
Assay type in all cases: biochemical, S. cerevisiae
[1] = substrate: Nc1cc[nH]c(=O)n1; test: Enzyme activity of yCD-His (substrate turnover); settings: other: enzyme yCD-His, 10 uL of 4.52 ug/mL stock; average ±SE; 23.0 °C
Experimental: (§1) The S. cerevisiae yeast cytosine deaminase (yCD) enzyme was cloned and expressed. The resulting 474 bp gene was subcloned into pET-15b to facilitate purification of the protein via a fused histidine tag and transformed into competent BL21(DE3) cells for protein expression. An estimate of about 25-30 mg of pure yCD-His was collected from a 1-liter culture. Thrombin cleavage of the histidine tag on yCD-His was achieved by incubating the protein for 2 hours at 23° C. in thrombin cleavage buffer. Enzyme activity characteristics for yCD and yCD-His was investigated using both the prodrug 5FC and the enzyme's natural substrate, the DNA base cytosine. Five-FC turnover rates remained within 10^5 M^−1·s^−1 (Table 1) for both proteins (see E. Kievit et al. Cancer Res. 2000, 60:6649-6655). The diffusion controlled limit for extremely efficient enzymes and their substrates in solution is in the range 10^8-10^9 M^−1·s^−1, therefore it was concluded that yCD was a very efficient pretargeting enzyme for catalyzing 5FC to 5FU conversion, especially applicable to GDEPT.

[2] = substrate: Nc1nc(=O)[nH]cc1F; test: Enzyme activity of yCD-His (substrate turnover); settings: other: enzyme yCD-His, 10 uL of 4.52 ug/mL stock; average ±SE; 23.0 °C
Experimental: as §1

[3] = substrate: Nc1cc[nH]c(=O)n1; test: Enzyme activity of yCD (His tag cleaved); settings: other: enzyme yCD, 10 uL of 4.23 ug/mL stock; average ±SE; 23.0 °C
Experimental: as §1

[4] = substrate: Nc1nc(=O)[nH]cc1F; test: Enzyme activity of yCD (His tag cleaved); settings: other: enzyme yCD, 10 uL of 4.23 ug/mL stock; average ±SE; 23.0 °C
Experimental: as §1

B1: yCD-His (Saccharomyces cerevisiae S288C) (protein)
chain: MVTGGMASKWDQKGMDIAYEEAALGYKEGGVPIGGCLINNKDGSVLGRGHNMRFQKGSATLHGEISTLENCGRLEGKVYKDTTLYTTLSPCDMCTGAIIMYGIPRCVVGENVNFKSKGEKYLQTRGHEVVVVDDERCKKIMKQFIDERPQDWFEDIGE
notes: The resulting 474 bp gene was subcloned into pET-15b; made in house; host or cells: E. coli BL21(DE3)
Question: Which results are given for B1?
Answer: Km [1]: 4040 ± 1120 µM; Km [2]: 1000 ± 240 µM

B2: yCD (Saccharomyces cerevisiae S288C) (protein)
chain: B1 chain
notes: The resulting 474 bp gene was subcloned into pET-15b; histidine tag (pET-15b) (N, cleaved yes); made in house; host or cells: E. coli BL21(DE3)
Question: B2 was tested. Which Km [3] did it give?
Answer: 3750 ± 690 µM

Question: What about the Km [4] of the same protein?
Answer: 800 ± 180 µM
